Results: US20240101668A1 (WUGEN, published 2024)
Substitutions are numbered along the chain they refer to.

B1: Polypeptide No. 114 (scFv, V domains shown)
VH: QVQLVQSGAEVKKPGASVKVSCKASGGTFSKYAISWVRQAPGQGLEWMGWMNPNSGNTGYAQKFQGRVTMTRDTSTSTVYMELSSLRSEDTAVYYCARDQGLTGYFDLWGRGTLVTVSS
VL: DIQMTQSPSSLSASVGDRVTITCRASQSIGNWLAWYQQKPGKAPKLLIYKASSLESGVPSRFSGSGSGTDFTLTISSLQPEDFATYYCQQSYNTPPTFGPGTKVDIKR
notes: scFv
B2: Polypeptide No. 98 (scFv, V domains shown)
VH: QVQLVQSGAEVKKPGASVKVSCKASGGSFSSSAINWVRQAPGQGLEWMGWMNPNSGNTGYAQKFQGRVTMTRDTSTSTVYMELSSLRSEDTAVYYCARDRGIAVAGASPYYYYGMDVWGQGTTVTVSS
VL: DIQMTQSPSSLSASVGDRVTITCRASQDIGSYLAWYQQKPGKAPKLLIYAASSLQSGVPSRFSGSGSGTDFTLTISSLQPEDFATYYCHQSYSTPFTFGQGTKLEIKR
notes: scFv
B3: Polypeptide No. 105 (scFv, V domains shown)
VH: EVQLLESGGGLVQPGGSLRLSCAASGFTFNNAWMTWVRQAPGKGLEWVAVISYDGSNKYYADSVKGRFTISRDNSKNTLYLQMNSLRAEDTAVYYCARMAVAGKGAFDIWGQGTMVTVSS
VL: B2 VL with D28S, G30Y, Y32W, S53T, H89Q, S91T, F96V, L104V
notes: scFv
B4: Polypeptide No. 104 (scFv, V domains shown)
VH: EVQLLESGGGLVQPGGSLRLSCAASGFTFSSSWMHWVRQAPGKGLEWVAVISYDGSEEYYADSVKGRFTISRDNSKNTLYLQMNSLRAEDTAVYYCARLTDYGDYVLGRYLSDWGQGTLVTVSS
VL: B2 VL with D28G, G30S, H89Q, T94I, F96P
notes: scFv
B5: Polypeptide No. 107 (scFv, V domains shown)
VH: QVQLVQSGAEVKKPGSSVKVSCKASGYTFTDYYIHWVRQAPGQGLEWMGGIIPIFGTANYAQKFQGRVTITADESTSTAYMELSSLRSEDTAVYYCAREPLWFGESSPHDYYGMDVWGQGTLVTVSS
VL: B2 VL with R24Q, G30S, S31N, A34N, S53T, H89Q, T94S, F96P, L104V
notes: scFv
B6: Polypeptide No. 112 (scFv, V domains shown)
VH: QVQLVQSGAEVKKPGSSVKVSCKASGSTLTGYDIHWVRQAPGQGLEWMGGIIPFLGTASYAQEFQGRVTITADESTSTAYMELSSLRSEDTAVYYCARGGGSGYDLDYWGQGTLVTVSS
VL: B2 VL with A25S, Q27E, D28S, G30S, Y32W, A50S, S53T, H89Q, F96V, K103R
notes: scFv
B7: Polypeptide No. 117 (scFv, V domains shown)
VH: EVQLLESGGGLVQPGGSLRLSCAASGFTFGDYPMSWVRQAPGKGLEWVAGISYDGLNEHYADSVKGRFTISRDNSKNTLYLQMNSLRAEDTAVYYCARDRDSGPSGFQHWGQGTLVTVSS
VL: B1 VL with S28T, N31T, K50D, N93S, P100Q, D105E
notes: scFv
B8: Polypeptide No. 110 (scFv, V domains shown)
VH: QVQLVQSGAEVKKPGASVKVSCKASGYTFTDYYVHWVRQAPGQGLEWMGWMNPNSGNTGYAQKFQGRVTMTRDTSTSTVYMELSSLRSEDTAVYYCARDFIWVEGYLASPPPRFDYWGQGTLVTVSS
VL: B2 VL with D28R, S31N, Y32W, H89Q, F96L
notes: scFv
B9: Polypeptide No. 109 (scFv, V domains shown)
VH: QVQLVQSGAEVKKPGSSVKVSCKASGYTFTTYGISWVRQAPGQGLEWMGWMNPNSGNTGYAQKFQGRVTITADESTSTAYMELSSLRSEDTAVYYCAREGGDGDYPDYWGQGTLVTVSS
VL: EIVMTQSPATLSVSPGERATLSCRASQSISSSSLAWYQQKPGQAPRLLIYGASTRATGIPARFSGSGSGTEFTLTISSLQSEDFAVYYCQQYETAPYTFGQGTKLEIKR
notes: scFv
B10: Polypeptide No. 111 (scFv, V domains shown)
VH: QVQLVQSGAEVKKPGASVKVSCKASGGTFTSYGISWVRQAPGQGLEWMGWINPNTGVTNYAQDFQGRVTMTRDTSTSTVYMELSSLRSEDTAVYYCANEQGGFDYWGQGTLVTVSS
VL: B9 VL with I29V, S30A, S31G, S33Y, E93Y, T94S, A95T, Y97L, Q101G, L105V
notes: scFv
B11: Polypeptide No. 99 (scFv, V domains shown)
VH: QVQLVQSGAEVKKPGSSVKVSCKASGYTFSDYHIHWVRQAPGQGLEWMGWMNPNSGNTGYAQKFQGRVTITADESTSTAYMELSSLRSEDTAVYYCARTHSSGYYYWFDPWGQGTLVTVSS
VL: DIQMTQSPSSLSASVGDRVTITCRASQGISNNLNWYQQKPGKAPKLLIYQASNKDTGVPSRFSGSGSGTDFTLTISSLQPEDFATYYCQQSYSSPPTFGQGTKVEIKR
notes: scFv
B12: Polypeptide No. 118 (scFv, V domains shown)
VH: EVQLVESGGGLVKPGGSLRLSCAASGFTISNAWMSWVRQAPGKGLEWVAHIWNDGSQKYYADSVKGRFTISRDDSKNTLYLQMNSLKTEDTAVYYCARDGALGVGPDDYWGQGTLVTVSS
VL: DIVMTQSPLSLPVTPGEPASISCRSSQSLLHSNGYNYLDWYLQKPGQSPQLLIYAASSLQSGVPDRFSGSGSGTDFTLKISRVEAEDVGVYYCMQGLQTPHTFGGGTKVEIKR
notes: scFv
B13: Polypeptide No. 113 (scFv, V domains shown)
VH: QVQLVQSGAEVKKPGSSVKVSCKASGGTFSSYDINWVRQAPGQGLEWMGGLIPVFGTTHYAQNFQGRVTITADESTSTAYMELSSLRSEDTAVYYCATGLGVTTSNYYYGMDVWGQGTLVTVSS
VL: DIQMTQSPSSLSASVGDRVTITCRASQGIRNDIGWYQQKPGKAPKLLIYAASTLQSGVPSRFSGSGSGTDFTLTISSLQPEDFATYYCQQTYMMPYTFGQGTKLEIKR
notes: scFv
B14: Polypeptide No. 101 (scFv, V domains shown)
VH: EVQLLESGGGLVQPGGSLRLSCAASGFTFSSYGVHWVRQAPGKGLEWVSAISGDGGDTYYADSVKGRFTISRDNSKNTLYLQMNSLRAEDTAVYYCARDTWDYSNYGGIDYWGQGTLVTVSS
VL: DIQMTQSPSSLSASVGDRVTITCRASQNINTFLNWYQQKPGKAPKLLIYAASTLQSGVPSRFSGSGSGTDFTLTISSLQPEDFATYYCQQYDSFPLTFGGGTKVEIKR
notes: scFv
B15: Polypeptide No. 106 (scFv, V domains shown)
VH: QVQLVQSGAEVKKPGASVKVSCKASGYTFTGYYMHWVRQAPGQGLEWMGRIKPNSGGTDYAQKFQGRVTMTRDTSTSTVYMELSSLRSEDTAVYYCARGAYSGSYYGPIEYFQHWGQGTLVTVSS
VL: B14 VL with N28S, N30S, T31W, T53S, S56N, D92G, L96P
notes: scFv
B16: Polypeptide No. 116 (scFv, V domains shown)
VH: EVQLLESGGGLVQPGGSLRLSCAASGFTFSNYAMAWVRQAPGKGLEWVSAISGSGGGTYYADSVKGRFTISRDNSKNTLYLQMNSLRAEDTAVYYCAREGGYDPDYYYYGMDVWGQGTTVTVSS
VL: B14 VL with N28S, N30S, T31S, F32Y, A51T, T53R, Y91G, D92F, S93N, L96P
notes: scFv
B17: Polypeptide No. 103 (scFv, V domains shown)
VH: QVQLVQSGAEVKKPGASVKVSCKASGYTFTGYYMHWVRQAPGQGLEWMGWMNPDSGDTNYAQNFQGRVTMTRDTSTSTVYMELSSLRSEDTAVYYCATTRQPHYGMDVWGQGTTVTVSS
VL: not shown
notes: scFv
B18: Polypeptide No. 102 (scFv, V domains shown)
VH: EVQLLESGGGLVQPGGSLRLSCAASGFTFSNAWMSWVRQAPGKGLEWVSGIGGSGGTIYYADSVKGRFTISRDNSKNTLYLQMNSLRAEDTAVYYCAREVAAPLHPFGYYYYMDVWGKGTTVTVSS
VL: not shown
notes: scFv
B19: Polypeptide No. 115 (scFv, V domains shown)
VH: QVQLVQSGAEVKKPGASVKVSCKASGYTFTGYYMHWVRQAPGQGLEWMGIISPSGGSPTYAQKFQGRVTMTRDTSTSTVYMELSSLRSEDTAVYYCAREGNGGMDVWGQGTTVTVSS
VL: not shown
notes: scFv

Key:
[1] = target: T1, huCD33-G69-Fc recombinant protein (human, UniProt P20138 18-259); assay: BLI;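 also: biolayer interferometry: scFvs captured from periplasmic extracts on anti-V5-loaded streptavidin biosensors, antigen association for 2 min, buffer dissociation for 5 min, 1:1 Langmuir fit giving off-rate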
T1 construct: extracellular domain; also called CD33 R69G
T1 sequence (P20138 18-259 R69G): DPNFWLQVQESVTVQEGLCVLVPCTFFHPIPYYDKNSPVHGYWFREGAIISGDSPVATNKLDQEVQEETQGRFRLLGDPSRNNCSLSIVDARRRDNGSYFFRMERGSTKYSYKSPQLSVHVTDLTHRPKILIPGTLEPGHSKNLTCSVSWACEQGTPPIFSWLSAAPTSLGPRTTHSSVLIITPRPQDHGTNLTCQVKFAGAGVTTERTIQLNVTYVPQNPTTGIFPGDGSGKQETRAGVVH
Method: Discovered scFvs were analyzed for binding to huCD33-R69-His or huCD33-G69-Fc recombinant proteins (for anti-CD33 scFvs; for CLL-1 scFvs, huCLL1-K244-Avi-Tev-His or huCLL1-Q244-Avi-Tev-His were used; for FLT3, huFLT3-T227-His or huFLT3-M227-Fc were used) using BLI on a ForteBio Octet HTX instrument. Streptavidin-coated biosensors were loaded with biotinylated anti-V5 tag monoclonal antibody for 5 min and were then quenched and blocked with 20 μM amine-PEG2-Biotin for 5 min. scFvs were captured on biosensors from scFv clone periplasmic extracts. huCD33 (or huCLL-1, or huFLT3) proteins were then associated with the captured scFvs for 2 minutes, followed by dissociation with buffer (1×HBST [10 mM HEPES pH 7.4, 150 mM NaCl, 0.05% Tween-20], 1 g/L BSA) for 5 minutes. […] Data was fitted with 1:1 Langmuir equation and off-rate values were reported.

[2] = target: T2, huCD33-R69 stably expressed on Jurkat cells (human, UniProt P20138 18-364); assay: FACS on cells;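 also: fixed Jurkat lines probed with myc-tagged scFv periplasmic extracts, anti-myc PE flow cytometry, PE MFI fold binned − <2, + 2–10, ++ 10–30, +++ >30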
T2 construct: whole, on cells; >200,000 receptors per cell; also called CD33 WT; CD33^ARG69
T2 sequence (P20138 18-364): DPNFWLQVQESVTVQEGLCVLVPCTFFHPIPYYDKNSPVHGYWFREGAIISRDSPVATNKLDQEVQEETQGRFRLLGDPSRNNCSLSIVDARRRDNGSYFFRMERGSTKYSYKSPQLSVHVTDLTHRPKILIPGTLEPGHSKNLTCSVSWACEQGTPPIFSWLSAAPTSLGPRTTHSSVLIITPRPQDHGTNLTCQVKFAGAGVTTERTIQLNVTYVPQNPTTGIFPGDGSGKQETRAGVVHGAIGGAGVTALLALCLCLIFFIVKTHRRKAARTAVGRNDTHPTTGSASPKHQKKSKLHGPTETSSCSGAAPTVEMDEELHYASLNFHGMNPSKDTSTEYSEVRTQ

[3] = target: T3, huCD33-G69 stably expressed on Jurkat cells (human, UniProt P20138 18-364); assay: FACS on cells;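 also: fixed Jurkat lines probed with myc-tagged scFv periplasmic extracts, anti-myc PE flow cytometry, PE MFI fold binned − <2, + 2–10, ++ 10–30, +++ >30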
T3 construct: whole, on cells; >200,000 receptors per cell; also called CD33 Mutant; CD33 R69G
T3 sequence (P20138 18-364 R69G): as the sequence (P20138 18-364) above, with R52G counted along it

Row | Binder | binding result [1] | FACS geometric mean fold change over Jurkat parental [2] | FACS geometric mean fold change over Jurkat parental [3]
1 | B1 | binds | > 30 fold | 10 to 30 fold
2 | B2 | binds | 10 to 30 fold | > 30 fold
3 | B3 | binds | 10 to 30 fold | 10 to 30 fold
4 | B4 | binds | > 30 fold | > 30 fold
5 | B5 | binds | 10 to 30 fold | 10 to 30 fold
6 | B6 | binds | 2 to 10 fold | 2 to 10 fold
7 | B7 | binds | 2 to 10 fold | 2 to 10 fold
8 | B8 | binds | > 30 fold | > 30 fold
9 | B9 | binds | 10 to 30 fold | 10 to 30 fold
10 | B10 | binds | > 30 fold | 10 to 30 fold
11 | B11 | binds | > 30 fold | 10 to 30 fold
12 | B12 | binds | 10 to 30 fold | 2 to 10 fold
13 | B13 | binds | > 30 fold | 10 to 30 fold
14 | B14 | binds | > 30 fold | > 30 fold
15 | B15 | binds | 2 to 10 fold | 2 to 10 fold
16 | B16 | binds | > 30 fold | > 30 fold
17 | B17 | binds | 10 to 30 fold | 10 to 30 fold
18 | B18 | binds | 10 to 30 fold | 10 to 30 fold
19 | B19 | binds | 10 to 30 fold | 10 to 30 fold
